Source: publication PMC7069958, “Multi-level and lineage-specific interactomes of the Hox transcription factor Ubx contribute to its functional specificity”
Blank lines part the entries; values can stand above or below the molecule they belong to.

Columns and labels:
V5-Tin = molecular target: T1, V5-Tin (UniProt P22711); assay: EMSA; conditions: 20 mM HEPES pH 7.9, 1.4 mM MgCl2, 1 mM ZnSO4, 40 mM KCl, 0.1 mM EDTA, 5% glycerol, 0.2 ug poly(dI-dC), 0.1 ug BSA, 10 mM DTT, 0.1% NP40, 30 ul, 20 min; gel 6% …
T1 sequence: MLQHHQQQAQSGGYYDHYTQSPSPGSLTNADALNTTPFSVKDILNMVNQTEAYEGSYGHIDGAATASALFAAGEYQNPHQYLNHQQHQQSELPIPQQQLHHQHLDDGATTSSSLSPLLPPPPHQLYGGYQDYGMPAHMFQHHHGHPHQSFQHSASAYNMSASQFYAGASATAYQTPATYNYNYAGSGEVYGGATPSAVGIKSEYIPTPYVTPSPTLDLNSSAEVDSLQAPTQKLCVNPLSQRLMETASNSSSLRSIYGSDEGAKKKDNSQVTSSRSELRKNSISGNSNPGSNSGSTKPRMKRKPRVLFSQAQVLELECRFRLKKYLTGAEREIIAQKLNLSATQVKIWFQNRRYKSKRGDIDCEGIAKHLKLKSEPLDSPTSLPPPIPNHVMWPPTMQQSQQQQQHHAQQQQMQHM

[1] = molecular target: GST-Ubx^FL (full length) (Drosophila) (UniProt P83949); assay: pull-down; GST or GST-Ubx fusion proteins in equal amounts with His-purified proteins; affinity buffer (20 mM HEPES, 10 uM ZnCl2, 0.1% Triton, 2 mM EDTA) with NaCl, 1 mM DTT, 0.1 mM PMSF; 2 h at 4 °C; western blot
Sequence of GST-Ubx^FL (full length) (Drosophila) (P83949 whole entry, the tested form may be a part): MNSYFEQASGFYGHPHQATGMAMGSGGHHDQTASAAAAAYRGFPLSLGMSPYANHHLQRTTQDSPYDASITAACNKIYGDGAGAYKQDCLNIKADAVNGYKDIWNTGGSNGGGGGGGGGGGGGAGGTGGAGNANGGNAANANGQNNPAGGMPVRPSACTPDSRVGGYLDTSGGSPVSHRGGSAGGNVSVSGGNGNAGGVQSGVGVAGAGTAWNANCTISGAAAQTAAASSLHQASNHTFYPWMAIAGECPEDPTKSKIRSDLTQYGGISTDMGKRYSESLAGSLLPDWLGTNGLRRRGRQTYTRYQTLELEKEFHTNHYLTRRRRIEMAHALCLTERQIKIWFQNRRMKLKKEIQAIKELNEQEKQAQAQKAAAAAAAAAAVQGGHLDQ

Molecule: CAATCGCTGTAAATAAATAGGAGCCGCAGATCAAAGGCCTATCAATTAGCACCCATTTCGATTATGCTGCATGCTGCATATGCAGCACTTGCACTGCCTGCAATTCACACCCAATTAGTAATAAATTTGAATGCGCGCTGCAATTTGCCG (double strand) [dpp674 enhancer fragment F3 (150 bp)]
binding (V5-Tin): binds

fold stronger than the Ubx-Exd interaction (signal in pull-down compared with input) [1]: > 10 fold
B1: V5-Tin, His-purified (natural protein)
chain: T1 sequence
